Reference: paper PMC11035697, “Phosphorylation of the F-BAR protein Hof1 drives septin ring splitting in budding yeast” (Nature Communications, 2024)

Experiments:
[1] = target: the molecule itself; assay: negative-stain transmission electron microscopy; septin octamers diluted in low salt buffer (20 mM Tris-Cl pH 8, 30 mM NaCl, 2 mM MgCl2, 40 µM GTP), polymerised at least 30 min at 4 °C, 180 nM final; 1% uranyl acetate; octamers to filaments
[2] = target: T1, eGFP-tagged Cdc11-capped septin octamer (S. cerevisiae, UniProt P32458 1-415; P32468 1-407; P32457 1-520; P25342 1-322); assay: fluorescence microscopy of purified proteins (colocalisation on septin bundles); 1:1 mix of eGFP-tagged and untagged septin octamers (50 nM) on PI(4,5)P2-containing supported lipid bilayers in 20 mM Tris-Cl pH 8, 30 mM NaCl, 2 mM MgCl2, GTP; Hof1-BFP mixed 1:4 with untagged Hof1 added; spinning disk microscopy; settings: both partners purified
T1 construct: septin Cdc11, yeast; septin Cdc12, yeast; septin Cdc3, yeast; septin Cdc10, yeast; Always used as a 1:1 mix with the untagged octamer in the fluorescence experiments; also called eGFP-labelled septin octamers; GFP-tagged septin octamers; source: E. coli BL21 (DE3) Rosetta, co-expressed from pFM453 and pFM873, purified (amylose, thrombin cleavage of MBP, Ni-NTA); not shown: MBP, N-terminal, …

Row | binding result [2] | Binder | binding result [1]
1 | – | Cdc11-Cdc12-Cdc3-Cdc10-Cdc10-Cdc3-Cdc12-Cdc11 septin octamer (complex, S. cerevisiae, septin Cdc11, yeast; septin Cdc12, yeast; septin Cdc3, yeast; septin Cdc10, yeast; also called Cdc11-capped septin octamers; recombinant septin octamers; source: E. coli BL21 (DE3) Rosetta, co-expressed from pFM453 and pFM455, purified (amylose, thrombin cleavage of MBP, Ni-NTA); not shown: MBP, N-terminal, cleaved; His6, N-terminal, kept; copies: 2 + 2 + 2 + 2) chain 1: MSGIIDASSALRKRKHLKRGITFTVMIVGQSGSGRSTFINTLCGQQVVDTSTTILLPTDTSTEIDLQLREETVELEDDEGVKIQLNIIDTPGFGDSLDNSPSFEIISDYIRHQYDEILLEESRVRRNPRFKDGRVHCCLYLINPTGHGLKEIDVEFIRQLGSLVNIIPVISKSDSLTRDELKLNKKLIMEDIDRWNLPIYNFPFDEDEISDEDYETNMYLRTLLPFAIIGSNEVYEMGGDVGTIRGRKYPWGILDVEDSSISDFVILRNALLISHLHDLKNYTHEILYERYRTEALSGESVAAESIRPNLTKLNGSSSSSTTTRRNTNPFKQSNNINNDVLNPASDMHGQSTGENNETYMTREEQIRLEEERLKAFEERVQQELLLKRQELLQREKELREIEARLEKEAKIKQEE chain 2: MSAATATAAPVPPPVGISNLPNQRYKIVNEEGGTFTVMLCGESGLGKTTFINTLFQTVLKRADGQQHRQEPIRKTVEIDITRALLEEKHFELRVNVIDTPGFGDNVNNNKAWQPLVDFIDDQHDSYMRQEQQPYRTKKFDLRVHAVLYFIRPTGHGLKPIDIETMKRLSTRANLIPVIAKADTLTAQELQQFKSRIRQVIEAQEIRIFTPPLDADSKEDAKSGSNPDSAAVEHARQLIEAMPFAIVGSEKKFDNGQGTQVVARKYPWGLVEIENDSHCDFRKLRALLLRTYLLDLISTTQEMHYETYRRLRLEGHENTGEGNEDFTLPAIAPARKLSHNPRYKEEENALKKYFTDQVKAEEQRFRQWEQNIVNERIRLNGDLEEIQGKVKKLEEQVKSLQVKKSHLK chain 3: MSLKEEQVSIKQDPEQEERQHDQFNDVQIKQESQDHDGVDSQYTNGTQNDDSERFEAAESDVKVEPGLGMGITSSQSEKGQVLPDQPEIKFIRRQINGYVGFANLPKQWHRRSIKNGFSFNLLCVGPDGIGKTTLMKTLFNNDDIEANLVKDYEEELANDQEEEEGQGEGHENQSQEQRHKVKIKSYESVIEENGVKLNLNVIDTEGFGDFLNNDQKSWDPIIKEIDSRFDQYLDAENKINRHSINDKRIHACLYFIEPTGHYLKPLDLKFMQSVYEKCNLIPVIAKSDILTDEEILSFKKTIMNQLIQSNIELFKPPIYSNDDAENSHLSERLFSSLPYAVIGSNDIVENYSGNQVRGRSYPWGVIEVDNDNHSDFNLLKNLLIKQFMEELKERTSKILYENYRSSKLAKLGIKQDNSVFKEFDPISKQQEEKTLHEAKLAKLEIEMKTVFQQKVSEKEKKLQKSETELFARHKEMKEKLTKQLKALEDKKKQLELSINSASPNVNHSPVPTKKKGFLR chain 4: MDPLSSVQPASYVGFDTITNQIEHRLLKKGFQFNIMVVGQSGLGKSTLINTLFASHLIDSATGDDISALPVTKTTEMKISTHTLVEDRVRLNINVIDTPGFGDFIDNSKAWEPIVKYIKEQHSQYLRKELTAQRERFITDTRVHAILYFLQPNGKELSRLDVEALKRLTEIANVIPVIGKSDTLTLDERTEFRELIQNEFEKYNFKIYPYDSEELTDEELELNRSVRSIIPFAVVGSENEIEINGETFRGRKTRWSAINVEDINQCDFVYLREFLIRTHLQDLIETTSYIHYEGFRARQLIALKENANSRSSAHMSSNAIQR | binds
2 | binds | MBP-Hof1-BFP-6His (natural protein, S. cerevisiae, UniProt Q05080 1-669, looked up, F-BAR protein Hof1, S. cerevisiae, residues 1-669 (mTagBFP fragment cloned into pBG2163); BFP amplified from pHPOM1-mTagBFP2; also called Hof1 tagged with blue fluorescent protein; pSP1950; source: E. coli BL21 (DE3) Rosetta, purified (Ni-NTA, amylose); not shown: MBP, N-terminal, kept; mTagBFP, C-terminal, kept) MSYSYEACFWDPNDNGVNILLGHISQGIRSCDSMILFFKQRSELEKDYARRLGAITGKLDKDIGTNMDYGKLNETFNVVLSVEKARAQSHSKQSEILFRQIYTDTKAFAANLQARYTTLSGKIERLRMDKFNKKKGCEVLQKKLQDAQIRFRDLQLNENNMIGAKRVEHNKRELLKWESNSQEYKVQLDVLKQEYKASQKFWIHEWAQLSCELQEMENARISFLQSKLQQFATSSMETYILEQTKMDMLTNHLNSFTAADEISTFSKENGTGRLKHKTSKGDMNSSANWAQMSSISTTSKKTESYMDNIRKLSSQLKETENKRKLASIDKYEKPLPSPEVTMATQFRNSTPVIRNETKVVANPTLSLRSSPVQLQSNVDDSVLRQKPDKPRPIVGEEQLKPDEDSKNPDEKGLMVHKRNQSLSSPSESSSSNPTDFSHIKKRQSMESMTTSVSSMANSIDDSQRFAKSWNSSNRKRKSMSHLQVPSSASSRSDDGGRTPNSAHNLNEDDYNTRRDTSTSTILFKPPVAVRGTSRGHTHRQSMIMQDSSNPIEDALYEMERIQSSSKPGTKTGNIMDERGVVRDRGITVTLPIVTSEGFPVIEYAKAMYPLIGNEAPGLANFHKGDYLLITEIVNKDWYKGEVYDNDRIDRNHRIGLIPYNFIQLLHQGL | –
